One protein from US20240110168 can be followed below.

For this data set, the target named is T1, second subunit of the Jack Bean (Canavalia ensiformis) β-hexosaminidase.
T1 chain: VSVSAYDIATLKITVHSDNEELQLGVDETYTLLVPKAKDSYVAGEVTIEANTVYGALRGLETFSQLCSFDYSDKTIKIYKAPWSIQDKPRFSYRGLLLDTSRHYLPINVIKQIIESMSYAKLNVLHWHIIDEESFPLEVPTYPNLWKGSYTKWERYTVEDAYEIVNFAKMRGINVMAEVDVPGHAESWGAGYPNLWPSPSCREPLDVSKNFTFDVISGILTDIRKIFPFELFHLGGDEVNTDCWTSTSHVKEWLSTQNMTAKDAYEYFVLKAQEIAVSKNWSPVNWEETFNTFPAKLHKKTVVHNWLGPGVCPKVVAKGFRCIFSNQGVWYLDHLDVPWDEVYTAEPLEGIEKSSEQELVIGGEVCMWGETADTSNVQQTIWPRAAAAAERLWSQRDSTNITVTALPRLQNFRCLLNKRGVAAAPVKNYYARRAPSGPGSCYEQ

B1: first subunit of the Jack Bean (Canavalia ensiformis) β-hexosaminidase (protein)
chain: SIIEPTESLTYLWPLPADFTSGDETLSVDPALTLSVAGNGGGSSILRDAFDRYRGIIFKHSSVGFS
modifications: not fully specified
With B1, the “β-hexosaminidase (b-Hex) activity” value was “Dissociation of the two chains led to a complete loss of activity”.
